This data set can be described thus: collision cross section of unmodified peptide (TIMS, N2, iRT-aligned); higher = larger / more extended gas-phase ion. As for the experimental part: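 Unmodified synthetic counterpart peptides (ProteomeTools / JPT), analysed by nanoLC-TIMS-QTOF (dda-PASEF). 1/K0 was aligned run-wise to spiked iRT peptides and converted to CCS in N2 (Mason-Schamp). Values are the mean of 1-3 technical replicates for the most abundant feature at each charge state. The same unmodified peptide is repeated across rows and is averaged.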

Among the data in the supplement of paper PMC10598134 are collision cross section values, retold here.

± gives the standard deviation.

As to SAGSVESPSVSSTHR, the collision cross section runs as follows: (charge state: 2) 394.4 ± 0.14 Å²; (charge state: 3) 493.72 ± 0.22 Å².
LGVATVAKGVCGACK: the collision cross section worked out at 433.92 ± 2.8 Å² (charge state: 2) and 487.58 ± 4.2 Å² (charge state: 3).
SYVDTGGVSR yielded a collision cross section (charge state: 2) of 337.16 ± 0.15 Å².
RLDINTNTYTSQDLK displayed a collision cross section (charge state: 3) of 533.11 ± 1 Å².
On the same count and under the same terms, under LPPGALAHRLPTTGYLVYR stands 556.45 ± 1.4 Å².
For the sequence ITESVAETAQTIKK, the collision cross section by setting is: (charge state: 2) 434.75 ± 1.5 Å²; (charge state: 3) 508.11 ± 2.5 Å².
For SPSDSGYSYETIGKTTK, the collision cross section was 441.25 ± 2.3 Å² (charge state: 2) and 517.54 ± 3.3 Å² (charge state: 3).
Consider TSAVSSQANSQPPVQVSVK, for which the collision cross section by setting is: (charge state: 2) 457.25 ± 1.5 Å²; (charge state: 3) 542.62 ± 0.28 Å².
As to VGEFSGANKEK, the collision cross section (charge state: 2) turned out to be 374.9 ± 0.4 Å² and the collision cross section (charge state: 3) was determined as 443.03 ± 4.2 Å².
As to TFGKAAGPSLSHTSGGTQSK, the collision cross section runs as follows: (charge state: 2) 462.76 ± 2.3 Å²; (charge state: 3) 520.05 ± 2.3 Å².
For HHTLRQAPQPQSSLQR, the collision cross section (charge state: 3) is listed as 502.65 ± 0.69 Å².
Take GPPGPPGR: where the note is “charge state: 2”, the collision cross section is given as 295.47 ± 0.78 Å².
Sequence GPKGQQGEPGPK displayed a collision cross section (charge state: 2) of 356.26 ± 0.79 Å² and a collision cross section (charge state: 3) of 451.77 ± 0.63 Å².
As to VSPASSVDSNIPSSQGYKK, the collision cross section stood at 469.69 ± 3.1 Å² (charge state: 2) and 542.55 ± 1.8 Å² (charge state: 3).
The like results for ATVASSTQKFQDLGVK were, in that order, 459.73 ± 1.9 Å² and 485.98 ± 5 Å².
For the setting “charge state: 2”, SYGIPYIETSAK displayed a collision cross section of 384.66 ± 0.47 Å².
For VDIDAPDVSIEGPDAKLK, the collision cross section is, setting by setting: (charge state: 2) 460.39 ± 2.9 Å²; (charge state: 3) 544.84 ± 1.8 Å².
For STGLELETPSLVPVKK, the collision cross section (charge state: 2) came to 457.57 ± 5.2 Å² and the collision cross section (charge state: 3) worked out at 520.54 ± 2.5 Å².
With KVQFAPEK, where the note is “charge state: 2”, the collision cross section is reported as 329.36 ± 0.58 Å².
Same read-out and setting: under APIISGVTK stands 322.45 ± 0.15 Å²; under SGFGKFER, 339.56 ± 3 Å².
As for KFGVLSDNFK, the collision cross section runs as follows: (charge state: 2) 368.49 ± 1.5 Å²; (charge state: 3) 446.92 ± 3.4 Å².
The like results for PLPVALQTRLAK were, in that order, 398.31 ± 0.59 Å² and 471.01 ± 3.4 Å².
GGPGGELPRGPQAGLGPR: the collision cross section is, setting by setting: (charge state: 2) 431.54 Å²; (charge state: 3) 491.33 ± 3.4 Å².
On the same counts, the results for SHLRHAIPSAER are 388.74 ± 0.39 Å² and 458.41 ± 2.7 Å².
On the same counts, the results for ISALQGKLSK are 353.47 ± 1.4 Å² and 435.93 ± 5.2 Å².
AQVLAGGRGK yielded a collision cross section (charge state: 2) of 345.66 ± 0.88 Å².
Consider GIGRGTVQALHATGAR, for which the collision cross section is, setting by setting: (charge state: 2) 428.55 Å²; (charge state: 3) 501.79 ± 0.73 Å².
Take AVPSSPAGSAARGR: the collision cross section reads like this: (charge state: 2) 380.85 ± 0.71 Å²; (charge state: 3) 489.36 ± 2 Å².
The sequence GSRGFPGEK registered a collision cross section (charge state: 2) of 330.16 ± 0.23 Å².
Same read-out and setting: the value for AVAITQSPSSVR was 368.2 ± 0.14 Å².
With STNVTVAAARGIK, the collision cross section was 399.07 ± 1.1 Å² (charge state: 2) and 480.75 ± 3.1 Å² (charge state: 3).
In the case of IVSGKDYNVTANSK, the collision cross section (charge state: 2) is reported as 405.96 ± 2.6 Å² and the collision cross section (charge state: 3) is 485.92 ± 5.8 Å².
As to DYSVTANSK, the collision cross section (charge state: 2) stood at 329.32 ± 0.58 Å².
